Results from publication PMC4347646 (The Journal of Cell Biology, 2015).

Target: T1, Rab13 Q67L (in the Rab13 biosensor) (human, UniProt P51153 1-203, Q67L)
T1 sequence: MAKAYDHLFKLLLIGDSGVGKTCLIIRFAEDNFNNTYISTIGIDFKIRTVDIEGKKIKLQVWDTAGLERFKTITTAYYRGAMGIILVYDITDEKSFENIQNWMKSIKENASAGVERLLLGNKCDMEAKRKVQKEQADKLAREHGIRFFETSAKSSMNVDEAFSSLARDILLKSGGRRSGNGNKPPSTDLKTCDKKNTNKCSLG
Assay: FRET or BRET

B1: RBD of MICAL-L2 (in the Rab13 biosensor) (domain or fragment)
chain: not shown
FRET/mCer ratio, higher than in the Rab13 T22N biosensor: 53%
